Test results: publication PMC7307649 (Biochemistry, 2020)

T1: ACKR4 C-terminally fused to SmBiT (UniProt Q9NPB9)
T1 sequence: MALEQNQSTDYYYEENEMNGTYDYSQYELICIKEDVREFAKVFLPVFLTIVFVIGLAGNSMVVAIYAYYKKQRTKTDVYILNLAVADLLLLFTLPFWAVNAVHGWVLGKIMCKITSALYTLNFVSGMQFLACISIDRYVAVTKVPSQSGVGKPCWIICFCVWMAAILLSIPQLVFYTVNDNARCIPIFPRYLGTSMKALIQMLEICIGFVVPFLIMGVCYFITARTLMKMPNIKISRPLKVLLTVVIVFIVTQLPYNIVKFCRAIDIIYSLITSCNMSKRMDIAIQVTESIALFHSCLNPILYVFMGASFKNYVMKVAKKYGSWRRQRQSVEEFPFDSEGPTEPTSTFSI

T2: ACKR4 C-terminally fused to SmBiT (UniProt Q9NPB9 1-350)
T2 sequence (looked up): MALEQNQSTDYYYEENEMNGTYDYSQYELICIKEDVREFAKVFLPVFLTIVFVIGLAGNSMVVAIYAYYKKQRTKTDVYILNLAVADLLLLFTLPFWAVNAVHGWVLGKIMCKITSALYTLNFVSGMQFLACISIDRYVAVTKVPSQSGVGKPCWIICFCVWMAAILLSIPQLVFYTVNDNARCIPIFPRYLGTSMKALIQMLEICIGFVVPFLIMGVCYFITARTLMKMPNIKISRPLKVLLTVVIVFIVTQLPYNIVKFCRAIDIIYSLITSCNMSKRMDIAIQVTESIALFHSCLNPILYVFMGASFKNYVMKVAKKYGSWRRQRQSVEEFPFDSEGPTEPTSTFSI

T3: CCR7 C-terminally fused to SmBiT (human, UniProt P32248 25-378)
T3 sequence (looked up): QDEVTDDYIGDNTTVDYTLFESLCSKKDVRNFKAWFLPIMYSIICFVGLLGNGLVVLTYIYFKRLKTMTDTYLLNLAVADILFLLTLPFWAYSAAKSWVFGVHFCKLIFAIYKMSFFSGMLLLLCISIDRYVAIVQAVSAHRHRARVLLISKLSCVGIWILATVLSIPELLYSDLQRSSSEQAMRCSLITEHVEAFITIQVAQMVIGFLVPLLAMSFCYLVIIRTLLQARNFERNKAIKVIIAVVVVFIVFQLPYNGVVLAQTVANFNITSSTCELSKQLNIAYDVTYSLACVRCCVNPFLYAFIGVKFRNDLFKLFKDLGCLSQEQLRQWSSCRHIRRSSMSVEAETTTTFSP

T4: CCL21WT (full-length human CCL21, residues 1–111) (human), O00585
T4 chain: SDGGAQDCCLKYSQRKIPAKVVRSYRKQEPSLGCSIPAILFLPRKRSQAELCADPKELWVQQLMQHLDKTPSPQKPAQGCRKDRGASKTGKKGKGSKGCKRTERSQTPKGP


Tests used:
[1] = target: CCR7 C-terminally fused to SmBiT (human) (UniProt P32248)
[2] = target: CCR7 C-terminally fused to SmBiT (human) (UniProt P32248); remark: listed apart in the source
[3] = target: T1, ACKR4 C-terminally fused to SmBiT
[4] = target: CCR7 C-terminally fused to SmBiT (human) (UniProt P32248); remark: listed apart in the source
[5] = target: T2, ACKR4 C-terminally fused to SmBiT; test: cell-based or functional assay
[6] = target: T3, CCR7 C-terminally fused to SmBiT; test: cell-based or functional assay
[7] = target: T4, CCL21WT (full-length human CCL21, …); test: NMR titration; settings: remark: other sources report otherwise
[8] = target: T4, CCL21WT (full-length human CCL21, …); test: NMR titration; settings: remark: other sources report otherwise

| Molecule | calcium flux in CHEM-1 CCR7+ cells, EC50 [1] [µM] | β-arrestin 1 recruitment to CCR7, EC50 [2] [µM] | β-arrestin 1 recruitment to ACKR4, EC50 [3] [µM] | β-arrestin 1 recruitment to ACKR4 (panel with the truncation variants), EC50 [5] [µM] | calcium mobilization in CHEM-1 CCR7+ cells, EC50 [6] [µM] | β-arrestin 1 recruitment to CCR7 (panel with the truncation variants), EC50 [6] [µM] | also measured |
| --- | --- | --- | --- | --- | --- | --- | --- |
| CCL21 1–91 C80A (from UniProt O00585 24-114) (domain or fragment) | 0.0073 | 0.06 | 0.005 | – | – | – | cAMP inhibition assay, dose–response from 10 pM to 100 nM, EC50 [2]: 7 nM |
| CCL21 1–101 (from UniProt O00585 24-124) (domain or fragment) | 0.0215 | 0.1 | 0.03 | – | – | – | – |
| CCL21 C80AC99A (from UniProt O00585 24-134) (ligand) | – | – | – | – | – | – | calcium mobilization in CHEM-1 CCR7+ cells, EC50 [4]: 0.0253 µM |
| CCL21trunc (CCL21 residues 1–79) (domain or fragment, human, UniProt O00585 24-102, looked up) SDGGAQDCCLKYSQRKIPAKVVRSYRKQEPSLGCSIPAILFLPRKRSQAELCADPKELWVQQLMQHLDKTPSPQKPAQG | – | – | – | ~0.005 | 0.00585 | ~0.06 | – |
| CCL21WT (full-length human CCL21, residues 1–111) (ligand, UniProt O00585 24-134, looked up) SDGGAQDCCLKYSQRKIPAKVVRSYRKQEPSLGCSIPAILFLPRKRSQAELCADPKELWVQQLMQHLDKTPSPQKPAQGCRKDRGASKTGKKGKGSKGCKRTERSQTPKGP | – | – | – | ~0.03 | 0.0334 | ~0.1 | Kd [7]: 2000 to 10000 µM; Kd [8]: > 1000 µM |
